Among the data in US20220144956A1 (published 2022) are Kd values, retold here.

The labels stand for the following.
B1: H1 L1.38 XENP34601 (antibody, V domains shown)
VH: QLQVQESGPGLVKPSETLSLTCTVSGGSISNSYFSWGWIRQPPGKGLEWIGSFYYGEKTYYNPSLKSRATISIDTSKSQFSLKLSSVTAADTAVYYCPRGPTMIRGVIDSWGQGTLVTVSS
VL: EIVLTQSPATLSLSPGERATLSCRASQSVRSYLAWYQQKPGQAPRLLIYDASNRATGIPARFSGSGSGTDFTLTISSLEPEDFAVYYCQQSSNWPPTFGQGTKVEIK
B2: H1 L1.30 XENP34593 (antibody, V domains shown)
VH: QLQVQESGPGLVKPSETLSLTCTVSGGSISNSYFSWGWIRQPPGKGLEWIGSFYYGEKTYYNPSLKSRATISIDTSKSQFSLKLSSVTAADTAVYYCPRGPTMIRGVIDSWGQGTLVTVSS
VL: EIVLTQSPATLSLSPGERATLSCRASQSVRSYLAWYQQKPGQAPRLLIYDASNRATGIPARFSGSGSGTEFTLTISSLEPEDFAVYYCQQRSNWPPTFGQGTKVEIK
B3: H1 L1.23 XENP34586 (antibody, V domains shown)
VH: QLQVQESGPGLVKPSETLSLTCTVSGGSISNSYFSWGWIRQPPGKGLEWIGSFYYGEKTYYNPSLKSRATISIDTSKSQFSLKLSSVTAADTAVYYCPRGPTMIRGVIDSWGQGTLVTVSS
VL: EIVLTQSPATLSLSPGERATLSCRASQSVRSYLAWYQQKPGQAPRLLIYDASDRATGIPARFSGSGSGTDFTLTISSLEPEDFAVYYCQQRSNWPPTFGQGTKVEIK
B4: H1 L1.37 XENP34600 (antibody, V domains shown)
VH: QLQVQESGPGLVKPSETLSLTCTVSGGSISNSYFSWGWIRQPPGKGLEWIGSFYYGEKTYYNPSLKSRATISIDTSKSQFSLKLSSVTAADTAVYYCPRGPTMIRGVIDSWGQGTLVTVSS
VL: EIVLTQSPATLSLSPGERATLSCRASQSVRSYLAWYQQKPGQAPRLLIYDASNRATGIPARFSGSGSGTDFTLTISSLEPEDFAVYYCQQKSNWPPTFGQGTKVEIK
B5: H1 L1.20 XENP34583 (antibody, V domains shown)
VH: QLQVQESGPGLVKPSETLSLTCTVSGGSISNSYFSWGWIRQPPGKGLEWIGSFYYGEKTYYNPSLKSRATISIDTSKSQFSLKLSSVTAADTAVYYCPRGPTMIRGVIDSWGQGTLVTVSS
VL: EIVLTQSPATLSLSPGERATLSCRASQSVRSYLAWYQQKPGQAPRLLIYEASNRATGIPARFSGSGSGTDFTLTISSLEPEDFAVYYCQQRSNWPPTFGQGTKVEIK
B6: H1 L1.24 XENP34587 (antibody, V domains shown)
VH: QLQVQESGPGLVKPSETLSLTCTVSGGSISNSYFSWGWIRQPPGKGLEWIGSFYYGEKTYYNPSLKSRATISIDTSKSQFSLKLSSVTAADTAVYYCPRGPTMIRGVIDSWGQGTLVTVSS
VL: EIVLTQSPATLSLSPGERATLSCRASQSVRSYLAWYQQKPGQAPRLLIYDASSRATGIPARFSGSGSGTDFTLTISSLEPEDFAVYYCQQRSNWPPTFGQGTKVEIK
B7: H1 L1.27 XENP34590 (antibody, V domains shown)
VH: QLQVQESGPGLVKPSETLSLTCTVSGGSISNSYFSWGWIRQPPGKGLEWIGSFYYGEKTYYNPSLKSRATISIDTSKSQFSLKLSSVTAADTAVYYCPRGPTMIRGVIDSWGQGTLVTVSS
VL: EIVLTQSPATLSLSPGERATLSCRASQSVRSYLAWYQQKPGQAPRLLIYDASNRATSIPARFSGSGSGTDFTLTISSLEPEDFAVYYCQQRSNWPPTFGQGTKVEIK
B8: H1 L1.31 XENP34594 (antibody, V domains shown)
VH: QLQVQESGPGLVKPSETLSLTCTVSGGSISNSYFSWGWIRQPPGKGLEWIGSFYYGEKTYYNPSLKSRATISIDTSKSQFSLKLSSVTAADTAVYYCPRGPTMIRGVIDSWGQGTLVTVSS
VL: EIVLTQSPATLSLSPGERATLSCRASQSVRSYLAWYQQKPGQAPRLLIYDASNRATGIPARFSGSGSGTDFTLTISRLEPEDFAVYYCQQRSNWPPTFGQGTKVEIK
B9: H1 L1.19 XENP34582 (antibody, V domains shown)
VH: QLQVQESGPGLVKPSETLSLTCTVSGGSISNSYFSWGWIRQPPGKGLEWIGSFYYGEKTYYNPSLKSRATISIDTSKSQFSLKLSSVTAADTAVYYCPRGPTMIRGVIDSWGQGTLVTVSS
VL: EIVLTQSPATLSLSPGERATLSCRASQSVRSYLAWYQQKPGLAPRLLIYDASNRATGIPARFSGSGSGTDFTLTISSLEPEDFAVYYCQQRSNWPPTFGQGTKVEIK
B10: H1 L1.43 XENP34606 (antibody, V domains shown)
VH: QLQVQESGPGLVKPSETLSLTCTVSGGSISNSYFSWGWIRQPPGKGLEWIGSFYYGEKTYYNPSLKSRATISIDTSKSQFSLKLSSVTAADTAVYYCPRGPTMIRGVIDSWGQGTLVTVSS
VL: EIVLTQSPATLSLSPGERATLSCRASQSVRSYLAWYQQKPGQAPRLLIYDASNRATGIPARFSGSGSGTDFTLTISSLEPEDFAVYYCQQRNNWPPTFGQGTKVEIK
B11: H1 L1.29 XENP34592 (antibody, V domains shown)
VH: QLQVQESGPGLVKPSETLSLTCTVSGGSISNSYFSWGWIRQPPGKGLEWIGSFYYGEKTYYNPSLKSRATISIDTSKSQFSLKLSSVTAADTAVYYCPRGPTMIRGVIDSWGQGTLVTVSS
VL: EIVLTQSPATLSLSPGERATLSCRASQSVRSYLAWYQQKPGQAPRLLIYDASNRATGIPDRFSGSGSGTDFTLTISSLEPEDFAVYYCQQRSNWPPTFGQGTKVEIK
B12: H1 L1.34 XENP34597 (antibody, V domains shown)
VH: QLQVQESGPGLVKPSETLSLTCTVSGGSISNSYFSWGWIRQPPGKGLEWIGSFYYGEKTYYNPSLKSRATISIDTSKSQFSLKLSSVTAADTAVYYCPRGPTMIRGVIDSWGQGTLVTVSS
VL: EIVLTQSPATLSLSPGERATLSCRASQSVRSYLAWYQQKPGQAPRLLIYDASNRATGIPARFSGSGSGTDFTLTISSLQSEDFAVYYCQQRSNWPPTFGQGTKVEIK
B13: H1 L1.33 XENP34596 (antibody, V domains shown)
VH: QLQVQESGPGLVKPSETLSLTCTVSGGSISNSYFSWGWIRQPPGKGLEWIGSFYYGEKTYYNPSLKSRATISIDTSKSQFSLKLSSVTAADTAVYYCPRGPTMIRGVIDSWGQGTLVTVSS
VL: EIVLTQSPATLSLSPGERATLSCRASQSVRSYLAWYQQKPGQAPRLLIYDASNRATGIPARFSGSGSGTDFTLTISSLESEDFAVYYCQQRSNWPPTFGQGTKVEIK
B14: H1.59 L1 XENP34515 (antibody, V domains shown)
VH: QLQVQESGPGLVKPSETLSLTCTVSGGSISNSYFSWGWIRQPPGKGLEWIGSFYYGENTYYNPSLKSRATISIDTSKSQFSLKLSSVTAADTAVYYCPRGPTMIRGVIDSWGQGTLVTVSS
VL: EIVLTQSPATLSLSPGERATLSCRASQSVRSYLAWYQQKPGQAPRLLIYDASNRATGIPARFSGSGSGTDFTLTISSLEPEDFAVYYCQQRSNWPPTFGQGTKVEIK
B15: H1.73 L1 XENP34529 (antibody, V domains shown)
VH: QLQVQESGPGLVKPSETLSLTCTVSGGSISNSYFSWGWIRQPPGKGLEWIGSFYYGEKTYYNPSLKSRATISVDTSKSQFSLKLSSVTAADTAVYYCPRGPTMIRGVIDSWGQGTLVTVSS
VL: EIVLTQSPATLSLSPGERATLSCRASQSVRSYLAWYQQKPGQAPRLLIYDASNRATGIPARFSGSGSGTDFTLTISSLEPEDFAVYYCQQRSNWPPTFGQGTKVEIK
B16: H1.71 L1 XENP34527 (antibody, V domains shown)
VH: QLQVQESGPGLVKPSETLSLTCTVSGGSISNSYFSWGWIRQPPGKGLEWIGSFYYGEKTYYNPSLKSRFTISIDTSKSQFSLKLSSVTAADTAVYYCPRGPTMIRGVIDSWGQGTLVTVSS
VL: EIVLTQSPATLSLSPGERATLSCRASQSVRSYLAWYQQKPGQAPRLLIYDASNRATGIPARFSGSGSGTDFTLTISSLEPEDFAVYYCQQRSNWPPTFGQGTKVEIK

T1 sequence (P37173 23-166): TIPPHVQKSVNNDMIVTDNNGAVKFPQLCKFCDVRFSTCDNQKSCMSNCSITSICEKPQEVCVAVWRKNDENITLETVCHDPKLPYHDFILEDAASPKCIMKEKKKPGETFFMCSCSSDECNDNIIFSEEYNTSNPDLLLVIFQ

The first test concerns the target T1, human TGFßRII (antigen of the Octet experiments) (human, UniProt P37173 23-166). As to the kind of experiment: BLI (Octet).
The molecule B1 displayed a Kd of 24.5 nM.

Turning to B2, the affinity, expressed as Kd, was 0.668 nM. On the same count and under the same terms, next, B3: 0.479 nM; B4: 2.87 nM.

For B5, the affinity, expressed as Kd, was 2.24 nM. B6: the Kd turned out to be 0.644 nM. On the same count and under the same terms, in the case of B7 it was 0.92 nM. On the same count and under the same terms, next, B8: 0.706 nM; B9: 0.905 nM. On the same count and under the same terms, in the case of B10 it was 1.08 nM. For B11, the affinity, expressed as Kd, was 0.589 nM. B12 came in with a Kd of 1.61 nM. On to B13, for which binding was characterised by a dissociation constant (Kd) of 0.873 nM.

A further test concerns the target T1, human TGFßRII (antigen of the Octet …). The test is described as follows: BLI (Octet). The source holds these as a separate data set.
As for B14, the affinity, expressed as Kd, was 0.507 nM. The same measure, in the same setting: in the case of B15 it was 0.713 nM. The same measure, in the same setting: in the case of B16 it was 0.588 nM.
